Results: patent US20050064514A1
Values joined by “and” are separate entries in the source; they are usually repeats but may differ in a detail not shown here. Equal entries are not always repeated.

Tests used:
[1] = biological target: soluble monomeric FcγRIIIA-linker-AVITAG (158V allele) (human) (UniProt P08637); assay: BIAcore
[2] = biological target: soluble monomeric FcγRIIIA-linker-AVITAG (158V allele) (human) (UniProt P08637); assay: BIAcore separate fit
[3] = biological target: wild type CH1-CH3 Fc fusion protein displayed on yeast (pYD-CH1) (Saccharomyces cerevisiae; human) (UniProt P32781); assay: FACS titration 1.4 to 0.0006 µM, mean fluorescence, nonlinear regression
[4] = biological target: soluble FcγRIIB (form used in the ELISA not stated) (human) (UniProt P31994); assay: ELISA
[5] = biological target: soluble monomeric FcγRIIIA-linker-AVITAG (158V allele) (human) (UniProt P08637); assay: ELISA
[6] = biological target: FcγRIIB-Fc fusion protein (soluble dimeric FcγRIIB) (human) (UniProt P31994); assay: BIAcore
[7] = biological target: FcγRIIB-Fc fusion protein (soluble dimeric FcγRIIB) (human) (UniProt P31994); assay: BIAcore separate fit
[8] = biological target: soluble monomeric FcγRIIIA-linker-AVITAG (158V allele) (human) (UniProt P08637); assay: FACS, 0.1 µM biotinylated FcγRIIIA then 0.1 µM unlabeled FcγRIIIA

Chain of soluble monomeric FcγRIIIA-linker-AVITAG (158V allele) (human) (P08637 17-203 F176V limits assumed, form in doubt): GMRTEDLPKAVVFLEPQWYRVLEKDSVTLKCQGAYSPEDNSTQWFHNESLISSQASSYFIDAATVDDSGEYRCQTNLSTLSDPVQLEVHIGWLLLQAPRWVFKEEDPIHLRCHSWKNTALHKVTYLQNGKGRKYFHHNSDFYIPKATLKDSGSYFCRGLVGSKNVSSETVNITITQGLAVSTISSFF
Chain of FcγRIIB-Fc fusion protein (soluble dimeric FcγRIIB) (human) (P31994 43-217): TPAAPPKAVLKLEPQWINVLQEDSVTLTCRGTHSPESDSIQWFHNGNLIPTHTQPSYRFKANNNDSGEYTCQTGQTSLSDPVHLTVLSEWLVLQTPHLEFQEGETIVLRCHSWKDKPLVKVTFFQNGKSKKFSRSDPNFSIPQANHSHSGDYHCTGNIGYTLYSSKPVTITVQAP
Chain of soluble FcγRIIB (form used in the ELISA not stated) (human) (P31994 43-180 limits assumed, form in doubt): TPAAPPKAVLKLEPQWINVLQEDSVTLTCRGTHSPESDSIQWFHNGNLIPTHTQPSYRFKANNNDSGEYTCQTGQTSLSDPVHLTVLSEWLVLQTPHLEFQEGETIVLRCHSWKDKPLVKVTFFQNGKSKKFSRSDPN
Chain of P396L Fc variant displayed on the yeast surface (P32781 19-87, stated change not applied): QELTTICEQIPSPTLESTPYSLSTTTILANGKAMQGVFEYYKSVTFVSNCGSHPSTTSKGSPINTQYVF

Row | Kd [1] | Kd [2] [nM] | Substance | other results
1 | 195 nM | – | ch4-4-20 E293V, Q295E, A327T (from UniProt P01857 1-330) (antibody) | –
2 | 125 nM | – | ch4-4-20 Y319F, P352L, P396L (from UniProt P01857 1-330) (antibody) | –
3 | 128 nM | 128 | ch4-4-20 K288N, A330S, P396L (from UniProt P01857 1-330) (antibody) | –
4 | – | – | soluble FcγRIIIA tetrameric complex (from UniProt P08637 17-203) (receptor) | Kd [3]: 6 nM
5 | 72 nM | – | ch4-4-20 G316D, A378V, D399E (from UniProt P01857 1-330) (antibody) | –
6 | 62 nM | – | ch4-4-20 P247L, N421K (from UniProt P01857 1-330) (antibody) | –
7 | 70.2 nM | 70.2 | ch4-4-20 K334E, R292L (from UniProt P01857 1-330) (antibody) | –
8 | – | 48.6 | ch4-4-20 Mut25(0225) (MgFc 25: E333A, K334A, S298A) (from UniProt P01857 1-330) (antibody) | –
9 | – | – | chimeric 4-4-20 anti-fluorescein monoclonal antibody, wild type Fc | ELISA binding relative to wt [4]: 1 x; ELISA, OD [4]: 0.4 OD; ELISA binding relative to wt [5]: 1 x; ELISA, OD [5]: 0.5 OD; Kd [6]: 94 nM; koff [6]: 0.094 s⁻¹; Kd [7]: 61.4 nM; koff [7]: 0.085 s⁻¹
10 | 55.2 nM | – | ch4-4-20 K334E, T359N, T366S (from UniProt P01857 1-330) (antibody) | –
11 | 154 nM and 180 nM | – | ch4-4-20 K248M (from UniProt P01857 1-330) (antibody) | –
12 | 160 nM | 214 | ch4-4-20 V379M (from UniProt P01857 1-330) (antibody) | –
13 | 75.4 nM | 75.4 | ch4-4-20 K288M, K334E (from UniProt P01857 1-330) (antibody) | –
14 | – | 264 | ch4-4-20 Mut 6 (S219V) (from UniProt P01857 1-330) (antibody) | ELISA, OD [5]: 0.6 OD
15 | – | – | P396L Fc variant displayed on the yeast surface (from UniProt P32781 19-87) | loss of cell staining after 1 minute with unlabeled receptor [8]: 50%
16 | 178 nM | – | ch4-4-20 H268N, P396L (from UniProt P01857 1-330) (antibody) | –
